Biological target: T1, ArgR (Thermotoga neapolitana) (UniProt Q9KWZ0)
T1 sequence: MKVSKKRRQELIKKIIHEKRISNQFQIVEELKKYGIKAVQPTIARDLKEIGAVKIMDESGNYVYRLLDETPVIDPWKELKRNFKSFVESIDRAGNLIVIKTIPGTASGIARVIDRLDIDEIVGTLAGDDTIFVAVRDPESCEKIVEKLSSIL
Assay: EMSA
Conditions: 10 mM Tris-HCl pH 7.5, 250 mM KCl, 5 mM MgCl2, 2.5 mM CaCl2, 2.5% glycerol, 0.5 mM DTT, 100-fold sonicated herring sperm DNA, 37 C 30 min; 2% agarose in TAE …

TGTTACTCTTGAGTTACCAAAACAAAAACAAATGAATTTTTCTTCCAGAGGTGTTATATTTATGCTGTATAATTGTATGTGTTTTCAATCTGAAAGATGGAGGTGTTCAACTTGAAGGTGTCGAAAAAAAGAAGACAGGAACTCATAA (double strand) [argRo (ArgRTn)]
binding: binds
